Source: PMC9706563 (Journal of Medicinal Chemistry, 2022)
Ends that are not written are not given here.

Target: T1, PRMT5-MEP50 complex (full-length, purified) (human | , UniProt O14744 1-637; Q9BQA1 1-342)
T1 construct: Protein arginine methyltransferase 5 (PRMT5), human, of the full-length PRMT5-MEP50 complex; MEP50 (WDR77), of the full-length PRMT5-MEP50 complex; also called native PRMT5-MEP50; PRMT5-MEP50 methyltransferase; copies: 4 + 4
Assay: fluorescence polarisation; competitive; tracer fluorescently labeled … (S1) 1 nM, PRMT5-MEP50 600 nM, unlabeled peptide titrated in two-fold dilutions; 50 mM HEPES, 250 mM NaCl, 1 mM TCEP, 0.01% Tween 20, pH 8.0, room temperature
Conditions: both partners purified

T1 sequence (O14744 whole entry, chain 1 of 2): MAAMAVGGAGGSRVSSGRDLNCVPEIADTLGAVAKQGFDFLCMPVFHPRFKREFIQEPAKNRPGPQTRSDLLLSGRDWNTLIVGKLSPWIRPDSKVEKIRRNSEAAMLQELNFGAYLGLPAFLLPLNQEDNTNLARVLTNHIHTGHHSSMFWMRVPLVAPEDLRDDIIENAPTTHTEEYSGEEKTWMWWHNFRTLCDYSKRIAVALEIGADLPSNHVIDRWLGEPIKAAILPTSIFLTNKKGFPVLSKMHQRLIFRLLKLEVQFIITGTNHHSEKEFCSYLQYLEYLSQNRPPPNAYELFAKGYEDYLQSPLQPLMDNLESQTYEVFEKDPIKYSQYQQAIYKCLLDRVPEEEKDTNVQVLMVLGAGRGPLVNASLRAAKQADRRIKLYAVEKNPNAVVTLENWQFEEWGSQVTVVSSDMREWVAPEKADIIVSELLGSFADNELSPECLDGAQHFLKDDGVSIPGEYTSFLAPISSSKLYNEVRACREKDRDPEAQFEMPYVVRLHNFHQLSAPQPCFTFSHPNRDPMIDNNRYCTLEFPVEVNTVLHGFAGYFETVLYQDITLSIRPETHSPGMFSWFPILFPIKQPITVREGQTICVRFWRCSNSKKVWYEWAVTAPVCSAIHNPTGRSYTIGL
T1 sequence (Q9BQA1 whole entry, chain 2 of 2): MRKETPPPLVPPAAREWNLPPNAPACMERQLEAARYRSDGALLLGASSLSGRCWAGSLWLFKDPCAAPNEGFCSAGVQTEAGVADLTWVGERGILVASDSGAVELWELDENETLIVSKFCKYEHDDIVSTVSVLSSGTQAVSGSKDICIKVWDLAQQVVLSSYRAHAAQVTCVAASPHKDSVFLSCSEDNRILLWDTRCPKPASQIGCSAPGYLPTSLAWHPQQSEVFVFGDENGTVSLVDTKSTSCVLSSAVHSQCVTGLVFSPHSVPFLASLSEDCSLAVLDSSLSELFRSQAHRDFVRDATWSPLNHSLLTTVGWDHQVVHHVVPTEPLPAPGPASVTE

B1: fluorescently labeled SRVVPGQFDDADSSD RioK1 sequence (peptide)
peptide: SRVVPGQFDDADSSD
modifications: not fully specified; also: FITC label, position not given here
notes: also called S1; source: synthetic peptide
Q: Does B1 bind?
A: binds
